Each structure is given as a SMILES string. Where two headings read alike, the source gives them in different places.

Series [1] can be described thus: In vitro stability of 64Cu-labeled RGD conjugates in PBS, FBS and mouse serum. To be noted: 37° C., 24 h incubation; for remaining at 24 h, 3.7 MBq/mL: read-out: radiochemical purity / tracer remained intact. It counts as in vitro ADME. As to the method: After incubated at 37° C. for 3, 18, and 24 h, an aliquot of the mixture was removed from the PBS solution and the radiochemical purity was determined with HPLC. For the solution of FBS and mouse serum, the aliquots were added to 100 μL PBS with 50% TFA. After centrifugation, the upper solution was taken and filtered for HPLC analysis.

Series [2] can be described thus: Metabolic stability in U87 MG tumor-bearing mouse (radio-HPLC of blood and tissue homogenates). It counts as in vivo, athymic nude mouse. The following applies: 1 h post injection, i.v. The procedure: The blood was collected and immediately centrifuged for 5 min at 13,200 rpm, and the upper serum solution was added to 100 μL PBS solution containing 50% TFA, followed by mixing and centrifugation for 10 min, and the upper solution was then taken out and filtered for HPLC analysis. Liver, kidneys, and tumor were homogenized using a homogenizer, suspended in 1 mL of PBS buffer, and centrifuged for 10 min at 14,000 rpm, respectively. For each sample, after removal of the supernatant, the solution was added to 100 μL PBS solution containing 50% TFA, followed by mixing and centrifugation for 10 min, and the upper solution was then taken and filtered for HPLC analysis. Radioactivity was monitored using a solid-state radiation detector. The eluent was also collected using a fraction collector (1.5 min/fraction) and the radioactivity of each fraction was measured with the γ counter.

In series [3] the test system is U87 MG human glioma xenograft tumors. Description: MicroPET imaging of U87 MG tumor-bearing nude mice. The class given is in vivo, athymic nude mice. To be noted: microPET. As to the method: (§1) Athymic nude mice (about 10-20 weeks old, with a body weight of 25-35 g) were obtained from Harlan (Charles River, Mass.). All animal experiments were performed according to a protocol approved by University of Southern California Institutional Animal Care and Use Committee. The U87 MG human glioma xenograft model was generated by subcutaneous injection of 5×10^6 U87 MG human glioma cells into the front flank of athymic nude mice. The tumors were allowed to grow 3-5 weeks until 200-500 mm^3 in volume. Tumor growth was followed by caliper measurements of the perpendicular dimensions.
(§2) MicroPET scans and imaging analysis were performed using a rodent scanner (microPET R4; Siemens Medical Solutions) as previously reported (26). Li, Z., Cai, W., Cao, Q., Chen, K., Wu, Z., He, L., and Chen, X. (2007) ^64Cu-labeled tetrameric and octameric RGD peptides for small-animal PET of tumor αvβ3 integrin expression. J Nucl Med 48, 1162-71. […] Ten minute static scans were acquired at 1, 2, 4, and 20 h post injection. The images were reconstructed by a 2-dimensional ordered-subsets expectation maximum (OSEM) algorithm. For each microPET scan, regions of interest were drawn over the tumor, normal tissue, and major organs on the decay-corrected whole-body coronal images. The radioactivity concentration (accumulation) within the tumor, muscle, liver, and kidneys were obtained from the mean value within the multiple regions of interest and then converted to % ID/g.

Series [4] is described as follows: MicroPET imaging of U87 MG tumor-bearing nude mice. The class given is in vivo, athymic nude mice. The following applies: athymic nude, mouse, in vivo, iv, 11.1 MBq, total radioactivity, microPET; for tissue uptake at 1 h: 1 h p.i.; for tissue uptake at 2 h: 2 h p.i.; for tissue uptake at 4 h: 4 h p.i.; for tissue uptake at 20 h: 20 h p.i. The procedure: as §1, §2

A short description of series [5]: Log P of 64Cu-labeled RGD conjugates (1-octanol/PBS). The class given is physicochemical. To be noted: pH 7.4, read-out: log P (octanol/water partition coefficient). As to the method: After vigorously vortexing for 10 min, the vial was centrifuged for 5 min to ensure the complete separation of layers. Then, 3×10 μL of each layer was pipetted into other test tubes and radioactivity was measured using a gamma counter (Perkin-Elmer Packard Cobra). The measurement was repeated three times, and Log P values were calculated according to a known formula.

Series [6] in a line: Biodistribution by direct tissue sampling in U87 MG tumor bearing nude mice. To be noted: athymic nude, mouse, in vivo, 0.37 MBq, total radioactivity, direct tissue sampling, 20 h p.i. As to the method:
All mice were sacrificed and dissected at 20 h after the injection of the tracers. Blood, U87 MG tumor, major organs, and tissues were collected and weighed wet. The radioactivity in the tissues was measured using the gamma counter. The results were presented as percentage injected dose per gram of tissue (% ID/g). For each mouse, the radioactivity of the tissue samples was calibrated against a known aliquot of the injected activity. Mean uptake (% ID/g) for each group of animals was calculated with standard deviations.
To validate the accuracy of small animal PET quantification, we also performed a biodistribution experiment by using the direct tissue sampling technique. The data shown as the percentage administered activity (injected dose) per gram of tissue (% ID/g) in FIG. 19A. Both ^64Cu-AmBaSar-RGD and ^64Cu-DOTA-RGD mainly accumulated in kidneys, liver, stomach, intestine, and tumor. […] This difference was consistent with the excretion pattern from the microPET imaging results.

The subject of series [7] is U87 MG human glioblastoma cell line (integrin αvβ3-positive). Description: Cell uptake study in U87 MG cells. It counts as cell-based. To be noted: blocking with excess cold cyclic RGD. As to the method: U87 MG human glioblastoma cell line (integrin αvβ3-positive) was obtained from the American Type Culture Collection (ATCC, Manassas, Va.) and maintained under standard conditions according to ATCC as following: The U87 MG glioma cells were grown in Gibco's Dulbecco's medium supplemented with 10% fetal bovine serum (FBS), 100 IU/mL penicillin, and 100 μg/mL streptomycin (Invitrogen Co, Carlsbad, Calif.), at 37° C. in humidified atmosphere containing 5% CO2. The U87 MG glioma cells were grown in culture until sufficient cells were available.
The cell uptake study was performed as described in the literature with some modifications. […] The tumor cells were then washed three times with chilled PBS and harvested by 0.1 N NaOH solution containing 0.5% sodium dodecyl sulfate (SDS). The cell suspensions were collected and measured in the gamma counter.

On to `N=C(N)NCCC[C@@H]1NC(=O)[C@H](CCCCNC(=O)c2ccc(CNC34CNCCNCC(N)(CNCCNC3)CNCCNC4)cc2)NC(=O)[C@@H](Cc2ccc(O)cc2)NC(=O)[C@H](CC(=O)O)NC(=O)CNC1=O` [^64Cu-AmBaSar-RGD, metal not drawn], for which the “radiochemical purity / tracer remained intact” value in series [1] (PBS or FBS) was “more than 97%”; in series [1] (mouse serum) it was over 95%. The remaining at 24 h, 3.7 MBq/mL in series [1] (mouse serum) is over 95%; in series [1] (serum, pH 7.4, PBS or FBS), over 97%. Further, in series [2], the “amount of intact tracer in the blood” value is “approximately 88%”. Besides, the “amount of intact tracer in the kidneys” value in series [2] is reported as about 98%. The “amount of intact tracer in the liver” value in series [2] is about 98%. For the same molecule, the “amount of intact tracer in the tumor” value in series [2] is given as about 95%. In addition, the “uptake in U87 MG tumors” value in series [3] (1 h p.i.) is on record as 2.04±0.14 % ID/g; in series [3] (4 h p.i.), 1.87±0.11 % ID/g; in series [3] (20 h p.i.) it was 0.97±0.05 % ID/g. For the same molecule, the figures for the tissue uptake at 1 h in series [4] (read-out: liver uptake) and in series [4] (read-out: renal uptake) were 0.89 ± 0.13 %ID/g and 2.83 ± 0.77 %ID/g, respectively. In addition, the results for the tissue uptake at 2 h in series [4] (read-out: liver uptake) and in series [4] (read-out: renal uptake) were 0.76 ± 0.13 %ID/g and 2.68 ± 0.55 %ID/g, respectively. For the same molecule, the tissue uptake at 4 h in series [4] (read-out: liver uptake) stood at 0.75 ± 0.14 %ID/g; in series [4] (read-out: renal uptake), 2.49 ± 0.5 %ID/g. In addition, the tissue uptake at 20 h in series [4] (read-out: liver uptake) was determined as 0.64 ± 0.06 %ID/g; in series [4] (read-out: renal uptake) it was 1.43 ± 0.35 %ID/g; in series [6] (read-out: kidneys uptake), 1.51 ± 0.27 %ID/g; in series [6] (read-out: liver uptake) it was 0.55 ± 0.06 %ID/g. In addition, in series [5], the logP is -2.44 ± 0.12. Besides, the “binding to U87 MG cells in presence of excess cold cyclic RGD peptide” value in series [7] is “efficiently blocked”.

For the origin of these results see US9403875B2, “Cage-like bifunctional chelators, copper-64 radiopharmaceuticals and PET imaging using the same” (UNIVERSITY OF SOUTHERN CALIFORNIA, priority 2009, dated 2016).
